# Results: patent publication US20220251222A1, “IL-6Ralpha/IL-8R BISPECIFIC BINDING AGENTS FOR INHIBITING CANCER CELL MIGRATION” (The Johns Hopkins University, priority 2019, published 2022)
# Key:
# IL-6Rα = molecular target: T1, IL-6Rα (Homo sapiens, UniProt P08887); test: Cell surface binding on IL-6Rα+/IL-8R− HEK 293T cells (flow cytometry); settings: 2 hr at 4° C.
# T1 construct: expressed in transfected cells; host or cells: HEK 293T, lentiviral transduction (pCDH backbone)
# T1 sequence (P08887 20-468): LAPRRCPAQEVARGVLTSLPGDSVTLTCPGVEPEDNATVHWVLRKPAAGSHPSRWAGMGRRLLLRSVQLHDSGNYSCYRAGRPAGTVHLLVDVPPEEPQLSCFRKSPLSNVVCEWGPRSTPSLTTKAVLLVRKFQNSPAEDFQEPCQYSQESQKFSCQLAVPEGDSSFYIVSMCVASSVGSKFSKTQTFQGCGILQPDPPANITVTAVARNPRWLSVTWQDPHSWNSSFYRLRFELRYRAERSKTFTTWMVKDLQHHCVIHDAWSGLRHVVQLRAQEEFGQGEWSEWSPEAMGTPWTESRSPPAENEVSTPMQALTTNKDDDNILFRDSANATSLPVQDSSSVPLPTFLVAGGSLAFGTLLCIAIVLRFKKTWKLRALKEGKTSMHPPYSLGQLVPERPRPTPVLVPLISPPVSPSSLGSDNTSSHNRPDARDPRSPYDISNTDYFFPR
# Source text: GeneJuice (Sigma Aldrich) was used as the transfection reagent.
# Mean fluorescence intensity (MFI) of unstimulated cells was subtracted.
# IL-8 binding to IL-8R = molecular target: T2, IL-8 binding to IL-8R (Homo sapiens, UniProt P25025); test: IL-8 cell surface binding inhibition on IL-6Rα−/IL-8R+ HEK 293T cells; settings: His-tagged IL-8 400 nM
# T2 construct: expressed in transfected cells; host or cells: HEK 293T, lentiviral transduction (IL-6Rα−/IL-8R+)
# T2 sequence (P25025 1-360): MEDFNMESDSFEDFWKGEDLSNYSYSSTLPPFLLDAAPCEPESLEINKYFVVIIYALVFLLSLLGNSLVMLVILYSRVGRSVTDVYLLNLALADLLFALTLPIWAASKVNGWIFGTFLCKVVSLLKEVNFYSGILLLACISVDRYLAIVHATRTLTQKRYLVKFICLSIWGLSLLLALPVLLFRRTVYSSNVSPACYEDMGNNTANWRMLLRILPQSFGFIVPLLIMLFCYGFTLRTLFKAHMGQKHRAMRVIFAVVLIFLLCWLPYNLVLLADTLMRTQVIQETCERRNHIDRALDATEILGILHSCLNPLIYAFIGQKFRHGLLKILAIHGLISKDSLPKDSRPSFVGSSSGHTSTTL
# Experimental: Cells were then washed and incubated with 1:200 dilution of Alexa Fluor 647-conjugated streptavidin (Fisher Scientific, cat #: S21374) in PBSA for 15 min at 4° C. […] Curves were fitted to a first-order logistic model and IC50 values were calculated using GraphPad Prism data analysis software. Mean fluorescence intensity (MFI) of unstimulated cells was subtracted. […]
substance,measurement,setting,value
tocilizumab,"KD, binding to IL-6Rα on cells",IL-6Rα,only recognized IL-6Rα^+ cells
same,"IC50, competition with IL-8 binding to IL-8R",IL-8 binding to IL-8R,did not exert any inhibitory effects
